Patent US7326541 (TARGANTA THERAPEUTICS, dated 2008)
Where no end group is shown, it is not given here.

B1: Lamin C control of the yeast two-hybrid system (pGBKLaminC) (other)
chain: MKLLSSIEQACDICRLKKLKCSKEKPKCAKCLKNNWECRYSPKTKRSPLTRAHLTEVESRLERLEQLFLLIFPREDLDMILKMDSLQDIKALLTGLFVQDNVNKDAVTDRLASVETDMPLTLRQHRISATSSSEESSNKGQRQLTVSSEEVVSREVSGIKAAYEAELGDARKTLDSVAKERARLQLELSKVREEFKELKARNTKKEGDLIAAQARLKDLEALLNSKEAALSTALSEKRTLEGELHDLRGQVAKLEAALGEAKKQLQDEMLRRVDAENRLQTMKEELDFQKNIYSEELRETKRRHETRLVEID
notes: also called pGBKT7LaminC
B2: GST-cleaved STAAU_R9-561-599 (peptide)
chain: GQETIESLNHKLREATRIGDVELQKYYLQQIVAKNKERM
modifications: not fully specified; also: labelled with [32P] at the HMK phosphate acceptor site when used as probe
notes: not shown: vector residues left after PreScission cleavage, with the HMK phosphorylation site of pGEX-6PK
B4: 96 ORF 78 fused to the carboxyl terminus of the yeast Gal4 DNA binding domain (pGBK 96ORF78) (other)
chain: MKLLSSIEQACDICRLKKLKCSKEKPKCAKCLKNNWECRYSPKTKRSPLTRAHLTEVESRLERLEQLFLLIFPREDLDMILKMDSLQDIKALLTGLFVQDNVNKDAVTDRLASVETDMPLTLRQHRISATSSSEESSNKGQRQLTVSMNIMQFKSLLKSMYEETKQSDPIVANVYIETGWAVNRLLDNNELSPFDDYDRVEKKIMNEINWKKTHIKEC
B6: GST-cleaved 96 ORF 78 polypeptide (from pGEX-6PK 96ORF078) (other)
chain: MNIMQFKSLLKSMYEETKQSDPIVANVYIETGWAVNRLLDNNELSPFDDYDRVEKKIMNEINWKKTHIKEC
modifications: labelled with [^32P] at the heart muscle kinase phosphate acceptor site when used as probe
notes: also called [^32P]-96 ORF 78; purified 96 ORF 78 protein; not shown: vector residues left after PreScission cleavage, with the HMK phosphorylation site of pGEX-6PK

How the values were obtained:
[1] = molecular target: T1, STAAU_R9-35 (amino acids 35 to 599 of SEQ ID NO: 2) in pGADT7, Gal4 activation domain fusion (yeast; Staphylococcus aureus, UniProt Q5HFJ8 35-599); experiment: yeast two-hybrid, growth on THAL minus medium
T1 construct: Yeast two-hybrid construct
T1 sequence: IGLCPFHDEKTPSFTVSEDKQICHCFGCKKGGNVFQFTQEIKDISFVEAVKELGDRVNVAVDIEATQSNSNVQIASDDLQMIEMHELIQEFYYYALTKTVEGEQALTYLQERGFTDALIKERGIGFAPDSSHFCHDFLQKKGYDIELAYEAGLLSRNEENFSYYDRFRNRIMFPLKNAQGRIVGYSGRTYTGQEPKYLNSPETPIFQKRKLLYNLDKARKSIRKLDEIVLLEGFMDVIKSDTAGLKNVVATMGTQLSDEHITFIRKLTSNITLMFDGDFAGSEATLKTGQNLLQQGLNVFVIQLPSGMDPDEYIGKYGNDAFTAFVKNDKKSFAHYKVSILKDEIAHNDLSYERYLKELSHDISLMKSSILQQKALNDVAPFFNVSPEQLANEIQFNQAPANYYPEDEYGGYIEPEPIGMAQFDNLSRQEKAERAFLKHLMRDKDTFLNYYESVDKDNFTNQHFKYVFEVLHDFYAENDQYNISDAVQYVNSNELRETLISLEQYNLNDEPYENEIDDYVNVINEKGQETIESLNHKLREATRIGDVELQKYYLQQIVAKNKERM

[2] = molecular target: B6; experiment: affinity blotting (Far western), 32P-labelled probe on renatured blotted protein
[3] = molecular target: T2, GST (glutathione-S-transferase), negative control (UniProt P08515 1-218 = GST); experiment: as above
T2 construct: also called purified GST protein
T2 sequence (P08515 whole entry): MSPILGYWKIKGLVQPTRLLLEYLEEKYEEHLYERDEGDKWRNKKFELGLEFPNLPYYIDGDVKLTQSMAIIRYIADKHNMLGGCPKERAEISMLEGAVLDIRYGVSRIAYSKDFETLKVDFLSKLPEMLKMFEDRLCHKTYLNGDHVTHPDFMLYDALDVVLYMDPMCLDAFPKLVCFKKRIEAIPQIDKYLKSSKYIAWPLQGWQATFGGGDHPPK

[4] = molecular target: T3, GST/96ORF78 fusion protein from pGEX-6PK 96ORF078 (Staphylococcus aureus bacteriophage 96); experiment: as above
T3 construct: immobilized on nitrocellulose after SDS-PAGE, denatured and renatured; also called GST/960RF78; not shown: N-terminal GST tag encoded by pGEX-6P1 (Pharmacia Amersham Biotech); PreScission protease cleavage site and heart muscle kinase (HMK) phosphorylation site of pGEX-6PK (encoded by oligonucle)
T3 chain: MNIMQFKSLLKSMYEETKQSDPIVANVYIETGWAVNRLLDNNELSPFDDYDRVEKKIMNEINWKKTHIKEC

[5] = molecular target: B4; experiment: yeast two-hybrid, growth on THAL minus medium
[6] = molecular target: T1, STAAU_R9-35 (amino acids 35 to 599 of …); experiment: cell-based or functional assay
[7] = molecular target: B1; experiment: yeast two-hybrid, growth on THAL minus medium
[8] = molecular target: STAAU_R9-35 (amino acids 35 to 599 of SEQ ID NO: 2) in pGBKT7, Gal4 DNA binding domain fusion (yeast; Staphylococcus aureus, UniProt P04386 1-147); experiment: cell-based or functional assay
[9] = molecular target: T4, GST/STAAU_R9-561-599 fusion protein from pGEX-6PK_STAAU_R9-561-599 (Staphylococcus aureus); experiment: affinity blotting (Far western), 32P-labelled probe on renatured blotted protein
T4 construct: not shown: N-terminal GST tag encoded by pGEX-6P1 (Pharmacia Amersham Biotech); PreScission protease cleavage site, HMK phosphorylation site and cloning-site residues of pGEX-6PK
T4 chain: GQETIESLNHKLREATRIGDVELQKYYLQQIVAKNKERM

[10] = molecular target: B2; experiment: as above

## B1
[1]
  binding result: no binding

## B2
[2]
  binding result: binds
[3]
  binding result: no binding
[4]
  binding result: binds

B3: STAAU_R9 561 599 (amino acids 561-599 of STAAU_R9, SEQ ID NO: 6) in pGADT7, Gal4 activation domain fusion (other)
chain: GQETIESLNHKLREATRIGDVELQKYYLQQIVAKNKERM
notes: Yeast two-hybrid construct
[5]
  binding result: binds

## B4
[6]
  β-galactosidase activity: 10 fold

B5: 96 ORF 78 fused to the yeast Gal4 activation domain (pGADT7) (other)
chain: MNIMQFKSLLKSMYEETKQSDPIVANVYIETGWAVNRLLDNNELSPFDDYDRVEKKIMNEINWKKTHIKEC
[7]
  binding result: no binding
[8]
  β-galactosidase activity: 10 fold

## B6
[3]
  binding result: no binding
[9]
  binding result: binds
[10]
  binding result: binds
